This note sets out measurements from patent US20190000984A1.

The target in the experiment is IL-4R (interleukin-4 receptor) (UniProt P24394). The experiment in a line: cell-based or functional assay.

B1: anti-IL-4R:anti-CD63 conjugate (streptavidin-conjugated anti-IL-4R antibody combined 1:1 with biotinylated anti-CD63 antibody MEM-259) (protein, part only; not given: anti-CD63 antibody and constant regions, part only)
VH: EVQLVESGGGVVQPGRSLRLSCVASGFTFSDYGMHWVRQAPGKGLEWVAVIWYDGSIKYFRDSVKGRFTISRDNSKNTLYLQMNSLRVEDTAHYYCAKESSSWYFYHGLDVWGQGTMVTVSS
VL: EIVMTQSPLSLPVSPGEPASISCRSNQSLLHSNGNNYLAWYLQKPGQSPHLLIYLGSNRASGVPDRFSGSGSGTDFTLKISRVEAGDVGTYFCMQSLQAPPFTFGPGTKVEIKR
modifications: antibody conjugated to streptavidin (site not stated)
B1 gave an attenuation of IL-4R activity against the control constructs (STAT6-luciferase) above 10%.
